{"source": "patent US8709741B2", "about": "“Methods of diagnosing a plasmodium infection” (priority 2009, dated 2014)", "experiment": "Enzymatic hydrolysis of purified lipoproteins (NEFA)", "format": "biochemical, human", "conditions": "15 h at 37° C., each sPLA2 at approximately 10×IC50", "procedure": "CM/VLDL, LDL and HDL were purified from human plasma and used either fresh (F) or after minimal oxidization by air and light (Ox). After phospholipid content determination, plasma, LDL and HDL were adjusted to 1.6 mg PL/mL final concentration in PBS calcium. Because low amount was available, the CM/VLDL fraction was adjusted to 1.0 mg PL/mL. Each sample was incubated for 15 hours at 37° C., alone or in the presence of recombinant human GX sPLA2 (hGX PLA2; 25 nM), recombinant human GIIF sPLA2 (hGIIF PLA2; 125 nM), bee venom sPLA2 (bvPLA2; 0.18 nM) and Naja mossambica mossambica venom sPLA2 (Naja PLA2; 0.05 nM). NEFAs were quantified using the NEFA-C kit (WAKO). Values are the mean±SD of triplicate measurements. They were normalized by subtracting NEFA amount in the absence of enzyme. Two independent experiments with lipoproteins from different plasmas were performed, which gave similar qualitative results. Results from one experiment are shown;\nPlasma and purified LDL and HDL were adjusted to 1.67 mg phospholipid (PL)/mL final concentration in PBS. Because purification yielded low amount of CM/VLDL, the CM/VLDL fraction was adjusted to 1.00 mg PL/mL. CaCl2 (1 mM final) was added to the lipoprotein fractions. 200 μL of each fraction were deposited in a 96-well plate and incubated for 15 hours at 37° C., alone or in the presence of recombinant human GX sPLA2 (hGX PLA2, 25.0 nM), recombinant human GIIF sPLA2 (hGIIF PLA2, 125.0 nM), bee venom sPLA2 (bvPLA2, 0.18 nM) and Naja mossambica mossambica venom sPLA2 (Naja PLA2, 0.05 nM). NEFAs were measured in triplicate using the NEFA-C kit (WAKO). Value from each fraction was normalized by subtracting the NEFA amount in the corresponding fraction without enzyme. Two independent experiments with lipoproteins from different plasmas were performed, which gave similar qualitative results. According to the experiment, maximum hydrolysis reached 50% or 65% of total PLs in the fraction. […]", "data": [{"molecule": "X: recombinant human group X secreted phospholipase A2 (protein, UniProt O15496 43-165, looked up) Group 10 secretory …: GILELAGTVGCVGPRTPIAYMKYGCFCGLGGHGQPRDAIDWCCHGHDCCYTRAEEAGCSPKTERYSWQCVNQSVLCGPAENKCQELLCKCDQEIANCLAQTEYNLKYLFYPQFLCEPDSPKCD", "values": [{"measurement": "preferential order of lipoprotein hydrolysis", "value": "HDL>LDL>CM/VLDL"}]}]}
